# In patent publication US8759300B2, “Polypeptides and methods of use” (The Research Foundation for the State University of New York, priority 2007, dated 2014):
# Like-named read-outs stand apart in the source and are kept apart here.
# T1: VEGF (Homo sapiens, UniProt P15692)
# T1 sequence (P15692 27-191 isoform P15692-4): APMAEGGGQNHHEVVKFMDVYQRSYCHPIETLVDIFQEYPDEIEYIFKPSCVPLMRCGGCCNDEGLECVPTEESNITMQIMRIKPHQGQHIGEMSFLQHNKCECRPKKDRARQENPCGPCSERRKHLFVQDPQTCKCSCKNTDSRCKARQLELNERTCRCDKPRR
# Tests used:
# [1] = target: T2, PDGF-BB (Homo sapiens, UniProt P01127); assay: Equilibrium binding of 125I-PDGF-BB to FN, FN domains and peptides; conditions: for Kd: equilibrium binding
# Method: (§1) 20 μl of 50% v/v peptide-agarose beads are incubated with 125I-PDGF in 0.1 ml of binding buffer (DMEM+2% BSA) at room temperature for 2 hours with rotation. Beads are washed 6 times with DMEM. Bound PDGF-BB are released by the addition of 100 μl of 1M NaOH. The radioactivity bound to FN-beads are quantified in a γ-counter. Nonspecific binding are established from ^125I-PDGF binding to nonconjugated beads, then specific binding derived by subtraction of nonspecific binding from total binding. Binding constants (KD) and Bmax are determined from nonlinear regression of specific binding curves using Prism 4 from GraphPad Software, San Diego, Calif. “Scatchard plots” are derived from the KD and Bmax obtained with non linear regression analysis.
# [2] = target: T2, PDGF-BB; assay: Surface plasmon resonance (Biacore), PDGF-BB; assay type: binding
# Method: (§2) In the Biacore2000 system, binding constants from kinetic data are determined by passing varying concentrations of FN peptides (analytes) over chip surfaces which are coupled with PDGF-BB (ligand), respectively. All kinetic experiments are carried out at 20° C. at a flow rate of 20 μl/min. For mass transport experiments, each analyte is injected at a fixed concentration and run at flow rates ranging from 5 to 75 μl/min. All analytes are injected over PDGF-BB ligand surfaces as well as over a control surface for 120 s, followed by 300 s of dissociation in running buffer. Regeneration of the sensor chip for subsequent injections is accomplished by pulse of 0.1% SDS. Mass transport experiments have detected little difference in response at different flow rates thus validating data from kinetic experiments. Sensorgrams are prepared and globally fitted using nonlinear least-squares analysis and numerical integration of the differential rate equations with the Biacore Bioevaluation software. Each sensogram generated using a control surface is substracted from the corresponding experimental sensorgrams, and the resulting curves are transformed to concentration units using the molecular mass of the injected species, the equivalence of 1000 resonance units (RU) per 1 ng/mm^2, and a matrix thickness of 100 nm. Each data set, which consists of a series of sensorgrams from injections of different concentration of analyte over the same surface, are analyzed using kinetic models from Biaevaluation software.
# [3] = test system: FN-null cells; assay: FN-null cell survival on surfaces coated with FN domains; assay type: cell-based, mouse; conditions: for FN-null cell survival / proliferation: FNIII8-11 ± named FN domain, or named FN construct, PDGF-BB added 2 hrs after plating; for FN-null cell survival with PDGF at 3 days: surface precoated with 0.15 μM GST-tagged FNIII8-11 ± named FN domain, or named FN construct, PDGF-BB added 1 day after plating
# Method: To further investigate the response of cells to PDGF-BB bound to FN domains, we investigated the survival response of mouse fibroblasts null for FN (FN−/−), or “FN-null”. First we determined the response of FN-null cells to PDGF-BB in the absence of serum or other sources of exogenous FN. […] Next, FN-null cells were plated on tissue culture plastic surfaces precoated with 0.15 μM GST-tagged FNIII8-11±other FN domains known to have PDGF-BB binding activity and then PDGF-BB added 1 day later. […] Importantly, differential response of FN-null cells, plated on different FN domains, to PDGF-BB was not secondary to differences in attachment as judged by cell counts two hours after plating. The FNIII8-11 central cell binding domain was present in all circumstances.
# [4] = test system: GFs (TGF-β1, PDGF-BB, VEGF, FGF-2); assay: Binding of growth factors to FN domains, GFs reported together
# Method: as §1
# In the Biacore2000 system, binding constants from kinetic data are determined by passing varying concentrations of FN peptides (analytes) over chip surfaces which are coupled with PDGF-BB (ligand), respectively. All kinetic experiments are carried out at 20° C. at a flow rate of 20 μl/min. […] Mass transport experiments have detected little difference in response at different flow rates thus validating data from kinetic experiments. […] Each data set, which consists of a series of sensorgrams from injections of different concentration of analyte over the same surface, are analyzed using kinetic models from Biaevaluation software.
# [5] = target: T3, TGF-β1 (Homo sapiens, UniProt P01137); assay: Equilibrium binding of TGF-β1 to FN, FN domains and peptides
# Method: [The source words this procedure for another target and reports this target under the same test.] as §1
# [6] = target: EGF (Homo sapiens, UniProt P01133); assay: Binding of EGF to FN, FN domains and peptides
# [7] = target: T3, TGF-β1; assay: Surface plasmon resonance, TGF-β1; assay type: binding
# Method: [The source words this procedure for another target and reports this target under the same test.] as §2
# [8] = target: bFGF (FGF-2) (Homo sapiens, UniProt P09038); assay: Equilibrium binding of bFGF (FGF-2) to FN and FN domains; conditions: method not restated (equilibrium and kinetic binding performed); read-out: KD, bFGF binding
# Method: [The source words this procedure for another target and reports this target under the same test.] as §1
# [9] = target: FGF-2 (Homo sapiens, UniProt P09038); assay: Surface plasmon resonance, FGF-2; conditions: read-out: KD, FGF-2 binding
# Method: [The source words this procedure for another target and reports this target under the same test.] as §2, with “Each sensogram generated using a control surface is substracted from the corresponding experimental sensorgrams, and the resulting curves are transformed to concentration units using the molecular mass of the injected species, the equivalence of 1000 resonance units (RU) per 1 ng/mm^2, and a matrix thickness of 100 nm.” left out
# [10] = target: T1, VEGF; assay: Surface plasmon resonance, VEGF; assay type: binding; conditions: plasmon resonance; read-out: KD, VEGF binding
# [11] = test system: GFs (TGF-β1, PDGF-BB, VEGF, FGF-2); assay: Binding of growth factors to FN domains, GFs reported together; remark: listed apart in the source
# [12] = method not restated (equilibrium and kinetic binding performed)
# [13] = method not restated, read-out: KD, PDGF-BB binding
# [14] = method not restated, read-out: KD, TGF-β1 binding
# [15] = plasmon resonance, kinetic binding
# Sequence of bFGF (FGF-2) (P09038 143-288): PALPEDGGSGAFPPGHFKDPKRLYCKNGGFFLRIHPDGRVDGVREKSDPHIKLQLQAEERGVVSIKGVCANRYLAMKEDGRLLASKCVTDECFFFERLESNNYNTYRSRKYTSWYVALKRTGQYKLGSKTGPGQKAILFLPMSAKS
# T2 sequence (P01127 82-190 limits assumed): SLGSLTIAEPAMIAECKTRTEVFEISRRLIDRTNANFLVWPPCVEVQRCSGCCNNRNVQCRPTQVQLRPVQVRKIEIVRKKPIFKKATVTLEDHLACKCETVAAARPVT
# T3 sequence (P01137 279-390 limits assumed): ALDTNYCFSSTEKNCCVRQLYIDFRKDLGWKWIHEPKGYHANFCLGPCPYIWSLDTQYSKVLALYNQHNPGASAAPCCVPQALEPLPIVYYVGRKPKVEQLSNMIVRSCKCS
# Sequence of FGF-2 (P09038 143-288): as the sequence (P09038 143-288) above
# Sequence of EGF (P01133 971-1023 limits assumed, species assumed): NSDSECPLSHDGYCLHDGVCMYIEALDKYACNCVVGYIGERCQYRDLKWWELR
molecule,measurement,setting,value
"FNIII3-6: recombinant FN domain, type III repeats 3-6 (protein) MGSAPPDTTVDQVDDTSIVVRWSRPQAPITGYRIVYSPSVEGSSTELNLPETANSVTLSDLQPGVQYNITIYAVEENQESTPVVIQQETTGTPRSDTVPSPRDLQFVEVTDVKVTIMWTPPESAVTGYRVDVIPVNLPGEHGQRLPISRNTFAEVTGLSPGVTYYFKVFAVSHGRESKPLTAQQTTKLDAPTNLQFVNETDSTVLVRWTPPRAQITGYRLTVGLTRRGQPRQYNVGPSVSKYPLRNLQPASEYTVSLVAIKGNQESPKATGVFTTLQPGSSIPPYNTEVTETTIVITWTPAPRIGFKLGVRPSQGGEAPREVTSDSGSIVVSGLTPGVEYVYTIQVLRDGQERDAPIVNKVVTPLSTSHHHHHHC","PDGF-BB binding, in words",[1]; equilibrium binding and/or plasmon resonance,did not
same,"PDGF-BB binding, in words",[2]; surface resonance,no binding
same,"FN-null cell survival / proliferation, summary statement","[3]; cells plated on named FN construct, or on FNIII8-11 ± named domain",did not support cell survival
same,"Binding of the GFs tested, in words",[4],In no case did any GF bind
IIICS: variably-spliced IIICS domain of FN (protein) MGSDELPQLVTLPHPNLHGPEILDVPSTVQKTPFVTHPGYDTGNGIQLPGTSGQQPSVGQQMIFEEHGFRRTTPPTTATPIRHRPRPYPPNVGEEIQIGHIPREDVDYHLYPHGPGLNPNASTTSHHHHHHC,Kd,[1],350 nM
same,Kd,[5]; [12],74 nM
same,"EGF binding, in words",[6],failed to bind
same,FN-null cell survival / proliferation,[3],enhance survival
same,FN-null cell survival with PDGF at 3 days,[3],increased survival
"FNIII12-13: FN domain, type III repeats 12-13 (protein) MGSAIPAPTDLKFTQVTPTSLSAQWTPPNVQLTGYRVRVTPKEKTGPMKEINLAPDSSSVVVSGLMVATKYEVSVYALKDTLTSRPAQGVVTTLENVSPPRRARVTDATETTITISWRTKTETITGFQVDAVPANGQTPIQRTIKPDVRSYTITGLQPGTDYKIYLYTLNDNARSSPVVIDASTTSHHHHHHC",Kd,[1],75 nM
FNIII12-15: heparin II binding domain of FN (protein) MGSTIPAPTDLKFTQVTPTSLSAQWTPPNVQLTGYRVRVTPKEKTGPMKEINLAPDSSSVVVSGLMVATKYEVSVYALKDTLTSRPAQGVVTTLENVSPPRRARVTDATETTITISWRTKTETITGFQVDAVPANGQTPIQRTIKPDVRSYTITGLQPGTDYKIYLYTLNDNARSSPVVIDASTAIDAPSNLRFLATTPNSLLVSWQPPRARITGYIIKYEKPGSPPREVVPRPRPGVTEATITGLEPGTEYTIYVIALKNNQKSEPLIGRKKTGQEALSQTTISWAPFQDTSEYIISCHPVGTDEEPLQFRVPGTSTSATLTGLTRGATYNVIVEALKDQQRHKVREEVVTVGNSVNEGTSHHHHHHC,Kd,[1],6.8 nM
same,Kd,[2]; [13],6.8 nM
same,Kd,[5]; [12],16 nM
same,Kd,[7]; [14],16 nM
same,Kd,[8],130 nM
same,Kd,[9]; method not restated,170 nM
FNIII12-V15: composite heparinII-binding and variably-spliced IIICS domains of FN (protein) MGSAIPAPTDLKFTQVTPTSLSAQWTPPNVQLTGYRVRVTPKEKTGPMKEINLAPDSSSVVVSGLMVATKYEVSVYALKDTLTSRPAQGVVTTLENVSPPRRARVTDATETTITISWRTKTETITGFQVDAVPANGQTPIQRTIKPDVRSYTITGLQPGTDYKIYLYTLNDNARSSPVVIDASTAIDAPSNLRFLATTPNSLLVSWQPPRARITGYIIKYEKPGSPPREVVPRPRPGVTEATITGLEPGTEYTIYVIALKNNQKSEPLIGRKKTDELPQLVTLPHPNLHGPEILDVPSTVQKTPFVTHPGYDTGNGIQLPGTSGQQPSVGQQMIFEEHGFRRTTPPTTATPIRHRPRPYPPNVGEEIQIGHIPREDVDYHLYPHGPGLNPNASTGQEALSQTTISWAPFQDTSEYIISCHPVGTDEEPLQFRVPGTSTSATLTGLTRGATYNVIVEALKDQQRHKVREEVVTVGNSVNEGTSHHHHHHC,Kd,[1],21 nM
same,Kd,[2]; [15],17 nM
same,Kd,[5]; equilibrium binding,97 nM
same,Kd,[8],37 nM
same,Kd,[9]; plasmon resonance,37 nM
same,Kd,[10],0.6 nM
same,FN-null cell survival / proliferation,[3],enhance survival
same,GF binding with up to 2.5 M NaCl or pH lowered to about 2.0,[11],failed to demonstrate any diminution
"FNIII1-7: FN domain, type III repeats 1-7 (protein) MGSGPVEVFITETPSQPNSHPIQWNAPQPSHISKYILRWRPKNSVGRWKEATIPGHLNSYTIKGLKPGVVYEGQLISIQQYGHQEVTRFDFTTTSTSTPVTSNTVTGETTPFSPLVATSESVTEITASSFVVSWVSASDTVSGFRVEYELSEEGDEPQYLDLPSTATSVNIPDLLPGRKYIVNVYQISEDGEQSLILSTSQTTAPDAPPDTTVDQVDDTSIVVRWSRPQAPITGYRIVYSPSVEGSSTELNLPETANSVTLSDLQPGVQYNITIYAVEENQESTPVVIQQETTGTPRSDTVPSPRDLQFVEVTDVKVTIMWTPPESAVTGYRVDVIPVNLPGEHGQRLPISRNTFAEVTGLSPGVTYYFKVFAVSHGRESKPLTAQQTTKLDAPTNLQFVNETDSTVLVRWTPPRAQITGYRLTVGLTRRGQPRQYNVGPSVSKYPLRNLQPASEYTVSLVAIKGNQESPKATGVFTTLQPGSSIPPYNTEVTETTIVITWTPAPRIGFKLGVRPSQGGEAPREVTSDSGSIVVSGLTPGVEYVYTIQVLRDGQERDAPIVNKVVTPLSPPTNLHLEANPDTGVLTVSWERSTTPDITGYRITTTPTNGQQGNSLEEVVHADQSSCTFDNLSPGLEYNVSVYTVKDDKESVPISDTIIPETSHHHHHHC",Kd,[1],75 nM
same,Kd,[2]; [15],100 nM
same,Kd,[5]; equilibrium binding,17 nM
same,Kd,[7]; [15],18 nM
same,Kd,[8],4.1 nM
same,"Binding of the GFs tested, in words",[4],all four GFs bound
"FNIII12-14: recombinant heparinII-binding domain of FN, type III repeats 12-14 (protein) MGSAIPAPTDLKFTQVTPTSLSAQWTPPNVQLTGYRVRVTPKEKTGPMKEINLAPDSSSVVVSGLMVATKYEVSVYALKDTLTSRPAQGVVTTLENVSPPRRARVTDATETTITISWRTKTETITGFQVDAVPANGQTPIQRTIKPDVRSYTITGLQPGTDYKIYLYTLNDNARSSPVVIDASTAIDAPSNLRFLATTPNSLLVSWQPPRARITGYIIKYEKPGSPPREVVPRPRPGVTEATITGLEPGTEYTIYVIALKNNQKSEPLIGRKKTTSHHHHHHC",Kd,[1],35 nM
same,Kd,[2]; [13],55 nM
same,Kd,[5]; [12],7.6 nM
same,Kd,[7]; [14],7.6 nM
same,Kd,[8],1.9 nM
same,FN-null cell survival / proliferation,[3],enhance survival
same,FN-null cell survival with PDGF at 3 days,[3],increased survival
